# Reference: patent US20210380703A1 (RIGEL PHARMACEUTICALS, published 2021)
# Residue numbers refer to the chain shown, from its start.
# B1: 366_B08 (antibody, V domains shown)
# VH: EVQLLESGGGLVQPGGSLRLSCAASGFTFDSYGMNWVRQAPGKGLEWVSNINYNGGYKGYADSVKGRFTISRDNSKNTLYLQMNSLRAEDTAVYYCARSANWHDTHLDYWGQGTLVTVSS
# VL: DIQMTQSPSSLSASVGDRVTITCRASQSIVSYLNWYQQKPGKAPKLLIYAATSRHSGVPSRFSGSGSGTDFTLTISSLQPEDFATYYCQQSYDNPLTFGGGTKVEIK
# notes: VH/VL only
# B2: 366_B10 (antibody, V domains shown)
# VH: B1 VH with D30S, N50G, G55S, K58T, G59S, H106A
# VL: B1 VL with V30I, H55A
# notes: VH/VL only
# B3: 366_B12 (antibody, V domains shown)
# VH: B1 VH with D30S, G33S, S49A, N50G, G55S, H106A
# VL: B1 VL with V30L, S31T, L33V, H55A
# notes: VH/VL only
# B4: 366_D04 (antibody, V domains shown)
# VH: B1 VH with D30S, G33S, N50G, K58T, G59S, H106A
# VL: B1 VL with V30S, L33V, A51T, H55A, D93E, N94T
# notes: VH/VL only
# B5: 366_D08 (antibody, V domains shown)
# VH: B1 VH with D30S, N35H, G59S, S99G, N101T
# VL: B1 VL with V30L, L33V, L47V, R54L, H55A, D93E
# notes: VH/VL only
# B6: 366_F04 (antibody, V domains shown)
# VH: B1 VH with D30S, S31D, N50G, K58T, G59S, H106A
# VL: B1 VL with V30L, L33V, L47V, A51T, D93E, N94S
# notes: VH/VL only
# B7: 366_F05 (antibody, V domains shown)
# VH: B1 VH with D30S, G33S, S49A, G55S, G59S
# VL: B1 VL with V30L, S31T, H55A, Y92D, D93N, N94T
# notes: VH/VL only
# B8: 366_F07 (antibody, V domains shown)
# VH: B1 VH with D30S, S31D, G33S, S49A, N50G, G55S, K58T, G59S
# VL: B1 VL with V30I, S31T, H55A, D93E, N94T
# notes: VH/VL only
# B9: 366_F08 (antibody, V domains shown)
# VH: B1 VH with D30S, N50S, K58T, G59S, S99G, N101T
# VL: not shown
# notes: VH/VL only
# B10: 366_G04 (antibody, V domains shown)
# VH: B1 VH with D30S, G33S, N50G, G55S, K58T, G59S, H106A
# VL: B1 VL with V30I, S31T, H55A, Y92D, N94T
# notes: VH/VL only
# B11: 366_G09 (antibody, V domains shown)
# VH: B1 VH with S31D, G33S, S49A, N50S, G55S, K58T, S99G, N101T
# VL: B1 VL with V30L, L33V, L47V, H55A, N94L
# notes: VH/VL only
# B12: 366_H06 (antibody, V domains shown)
# VH: B1 VH with D30S, N50S, K58T, H106A
# VL: B1 VL with V30L, A51T, H55A, N94T
# notes: VH/VL only
# B13: 366_H08 (antibody, V domains shown)
# VH: B1 VH with D30S, S31D, S49A, N50S, G55S, K58T, G59S
# VL: B1 VL with V30L, L33V, D93N
# notes: VH/VL only
# B14: 367_A02 (antibody, V domains shown)
# VH: B1 VH with N50S, G55S, S99G, N101T
# VL: B1 VL with V30I, A51V, H55A, N94T
# notes: VH/VL only
# B15: 367_A04 (antibody, V domains shown)
# VH: B1 VH with D30S, G33S, G55S, G59S, H106A
# VL: B1 VL with V30I, S31T, H55A, Y92D, N94S
# notes: VH/VL only
# B16: 367_A05 (antibody, V domains shown)
# VH: B1 VH with D30S, S31D, N50S, H106A
# VL: B1 VL with V30L, L47V, A51V, H55A, N94S
# notes: VH/VL only
# B17: 367_B03 (antibody, V domains shown)
# VH: B1 VH with D30S, S49A, N50G, G59S, H106A
# VL: B1 VL with V30L, S31T, R54L, H55A, D93N, N94L
# notes: VH/VL only
# B18: 367_B06 (antibody, V domains shown)
# VH: B1 VH with D30S, G33S, S49A, K58T, S99G, N101T
# VL: B1 VL with V30I, L33V, L47V, R54L, D93N, N94S
# notes: VH/VL only
# B19: 367_B07 (antibody, V domains shown)
# VH: B1 VH with D30S, S31D, G33S, S49A, N50G, G55S, K58T
# VL: B1 VL with V30I, L33V, R54L, H55A, D93N, N94L
# notes: VH/VL only
# B20: 367_B08 (antibody, V domains shown)
# VH: B1 VH with D30S, S31D, N50G, H106A
# VL: B1 VL with V30L, S31T, L47V, H55A
# notes: VH/VL only
# B21: 367_C08 (antibody, V domains shown)
# VH: B1 VH with G33S, N35H, S49A, N50G, K58T, G59S, S99G, N101T
# VL: B1 VL with V30L, S31T, R54L, H55A, Y92D, D93S
# notes: VH/VL only
# B22: 367_D05 (antibody, V domains shown)
# VH: B1 VH with D30S, S31D, G33S, N50S, G59S, S99G, N101T
# VL: B1 VL with V30I, L33V, L47V, R54L, H55A, N94S
# notes: VH/VL only
# B23: 367_D09 (antibody, V domains shown)
# VH: B1 VH with S49A, N50S, G59S, S99G, N101T
# VL: B1 VL with V30L, S31T, R54L, H55A
# notes: VH/VL only
# B24: 367_E07 (antibody, V domains shown)
# VH: B1 VH with D30S, S31D, G33S, N50S, S99G, N101T
# VL: B1 VL with V30L, L33V, L47V, H55A, D93E
# notes: VH/VL only
# B25: 367_E12 (antibody, V domains shown)
# VH: B1 VH with D30S, N35H, S49A, N50S, K58T, G59S, S99G, N101T
# VL: B1 VL with V30L, S31T, L33V, T52S, R54L, H55Q, D93N, N94S
# notes: VH/VL only
# B26: 367_F09 (antibody, V domains shown)
# VH: B1 VH with G33S, N35H, S49A, N50G, K58T, G59S, S99G, N101T
# VL: B1 VL with V30L, S31T, R54L, H55A, Y92D, D93S
# notes: VH/VL only
# B27: 367_H05 (antibody, V domains shown)
# VH: B1 VH with D30S, N35H, S49A, N50S, G55S, G59S, S99G, N101T
# VL: not shown
# notes: VH/VL only
# B28: 367_H10 (antibody, V domains shown)
# VH: B1 VH with D30S, S49A, N50S, K58T, S99G, N101T
# VL: B1 VL with V30L, L33V, L47V, H55A, D93E, N94L
# notes: VH/VL only
# B29: 368_B02 (antibody, V domains shown)
# VH: B1 VH with D30S, N50G, G55S, G59S, S99G, N101T
# VL: not shown
# notes: VH/VL only
# B30: 368_C11 (antibody, V domains shown)
# VH: B1 VH with D30S, S31D, G33S, N50S, G55S, G59S, S99G, N101T
# VL: B1 VL with V30I, H55A
# notes: VH/VL only
# B31: 368_D02 (antibody, V domains shown)
# VH: B1 VH with S31D, K58T, S99G, N101T
# VL: B1 VL with V30S, S31T, L47V, N94T
# notes: VH/VL only
# B32: 368_D12 (antibody, V domains shown)
# VH: B1 VH with D30S, N50S, K58T, G59S, S99G, N101T
# VL: B1 VL with V30L, L33V, L47V, H55A, D93N
# notes: VH/VL only
# B33: 368_F06 (antibody, V domains shown)
# VH: B1 VH with S31D, G33S, N35H, S49A, G55S, K58T, S99G, N101T
# VL: B1 VL with V30L, L47V, A51T, H55A, D93E
# notes: VH/VL only
# B34: 368_G03 (antibody, V domains shown)
# VH: B1 VH with D30S, G33S, N50G, G55S, K58T, G59S, S99G, N101T, H106A
# VL: B1 VL with V30L, L47V, H55A, N94T
# notes: VH/VL only
# B35: 368_G10 (antibody, V domains shown)
# VH: B1 VH with D30S, G33S, N35H, N50S, K58T, G59S, S99G, N101T
# VL: B1 VL with L33V, L47V, H55A, N94T
# notes: VH/VL only
# Target: T1, Goat anti-Human Kappa
# T1 construct: Positive control; also called biotinylated goat anti-human kappa light chain
# Assay: ELISA; positive control
# Experimental: (§1) The binding of ACVR2A-specific monoclonal antibodies to human ACVR2A, mouse ACVR2A, biotinylated goat anti-human kappa light chain (positive control) and human Fc (negative control) were determined by ELISA.
# Also: test concentration or dose not given here.
row,Binder,optical density
1,B1,3.05 OD
2,B2,3.06 OD
3,B3,3.44 OD
4,B4,3.46 OD
5,B5,3.65 OD
6,B6,3.37 OD
7,B7,3.25 OD
8,B8,3.47 OD
9,B9,3.47 OD
10,B10,3.29 OD
11,B11,3.44 OD
12,B12,3.39 OD
13,B13,3.55 OD
14,B14,3.58 OD
15,B15,3.3 OD
16,B16,3.38 OD
17,B17,3.44 OD
18,B18,3.02 OD

row,Binder,optical density
1,B19,3.34 OD
2,B20,3.03 OD
3,B21,3.05 OD
4,B22,3.34 OD
5,B23,3.37 OD
6,B24,3.21 OD
7,B25,3.71 OD
8,B26,3.46 OD
9,B27,3.59 OD
10,B28,3.55 OD
11,B29,3.61 OD
12,B30,3.56 OD
13,B31,3.52 OD
14,B32,3.57 OD
15,B33,3.31 OD
16,B34,3.39 OD
17,B35,3.45 OD

# Target: T2, Human ACVR2A (human, UniProt P27037 20-135, limits assumed)
# T2 construct: also called activin receptor, type II A
# T2 sequence (P27037 20-135 limits assumed): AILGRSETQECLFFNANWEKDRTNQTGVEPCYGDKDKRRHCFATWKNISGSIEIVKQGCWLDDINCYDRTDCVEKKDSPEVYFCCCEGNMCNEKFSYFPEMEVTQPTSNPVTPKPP
# Assay: ELISA
# Experimental: as §1
row,Binder,optical density
1,B1,2.15 OD
2,B2,2.33 OD
3,B3,3.24 OD
4,B4,2.08 OD
5,B5,2.17 OD
6,B6,1.73 OD
7,B7,2.19 OD
8,B8,2.39 OD
9,B9,1.86 OD
10,B10,1.85 OD
11,B11,1.85 OD
12,B12,2.29 OD
13,B13,2.59 OD
14,B14,2.23 OD
15,B15,2.14 OD
16,B16,2.22 OD
17,B17,2.48 OD
18,B18,1.82 OD

row,Binder,optical density
1,B19,1.42 OD
2,B20,2.13 OD
3,B21,1.12 OD
4,B22,1.26 OD
5,B23,2.15 OD
6,B24,1.94 OD
7,B25,2.69 OD
8,B26,1.79 OD
9,B27,2.44 OD
10,B28,2.58 OD
11,B29,2.08 OD
12,B30,2.03 OD
13,B31,1.93 OD
14,B32,2.25 OD
15,B33,1.6 OD
16,B34,2.73 OD
17,B35,2.06 OD

# Target: Mouse ACVR2A (mouse, UniProt P27038 20-135, limits assumed)
# Sequence (P27038 20-135 limits assumed): as the sequence (P27037 20-135 limits assumed) above, with K20R, V73I counted along it
# Assay: ELISA
# Experimental: as §1
row,Binder,optical density
1,B1,2.38 OD
2,B2,2.44 OD
3,B3,2.99 OD
4,B4,2.12 OD
5,B5,2.46 OD
6,B6,1.91 OD
7,B7,2.67 OD
8,B8,2.53 OD
9,B9,2 OD
10,B10,2.18 OD
11,B11,2.04 OD
12,B12,2.59 OD
13,B13,2.77 OD
14,B14,2.42 OD
15,B15,2.2 OD
16,B16,2.38 OD
17,B17,2.66 OD
18,B18,1.89 OD

row,Binder,optical density
1,B19,1.49 OD
2,B20,2.25 OD
3,B21,1.22 OD
4,B22,1.37 OD
5,B23,2.04 OD
6,B24,2.06 OD
7,B25,2.91 OD
8,B26,1.82 OD
9,B27,2.7 OD
10,B28,2.35 OD
11,B29,2.24 OD
12,B30,2.21 OD
13,B31,2.26 OD
14,B32,2.28 OD
15,B33,1.68 OD
16,B34,2.75 OD
17,B35,2.28 OD
